# In patent US20260109962:
# T1: 33-mer peptide from alpha-gliadin
# T1 chain: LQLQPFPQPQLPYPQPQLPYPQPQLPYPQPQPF
# Target: T1, 33-mer peptide from alpha-gliadin
protein,measurement,value
"Recombinant E40 (histidine-tagged endopeptidase 40 of Actinoallomurus A8, mature form, produced in S. lividans TK24/pIJ86/e40) (protein) AAPSGLSPANLQSAYKLPSSTAGSGQTVAIVDAYDAPTAEADLNVYRSQFGLGACTTANGCFKKVDQNGGTSYPRKDGGWAQEISLDLDMVSAVCPNCKIVLVEAKTNSFANLGTAENTAASLANVISNSYGGSDASDASYGSYYNHPGKAITVSSGDAGYGVEYPASSHYVTAVGGTSLRTASTSRGWSETAWSGAGSGCSAYNTALSGQSGLTGCSRRAVADVSAVADPATGVAVYDSTAYQGQSGWMVFGGTSVAAPIIGGVYGLAANAASIDNNYPYAHTSSLFDVTSGSNGTCTTTKWCTAGTGWDGPTGLGTPNGTGAFGHHHHHH","33-mer gliadin peptide degradation monitored by LC-MS/MS (1:48 enzyme vs substrate molar ratio, pH 5, 37 C): time to complete disappearance of the peptide",the native 33-mer peptide signal completely disappeared after only 15 minutes
same,33-mer gliadin peptide degradation monitored by LC-MS/MS (1:96 molar ratio): time to complete degradation,in that case complete 33-mer degradation took 30 minutes (not shown)
same,cleavage sites from MS/MS spectra of the digestion products,"E40 cleaving site occurs between F-P and Q-L residues of gliadin, leading to short peptides lacking of T-cell stimulatory capacity"
